Reference: patent US20250277023A1 (published 2025)
Substitutions are numbered along the chain they refer to. Names may count otherwise.

B1: R0968 (PD-L1 monoclonal antibody) (antibody, V domains shown)
VH: QVQLQESGPGLVKPSETLSLTCAVYGDSITSGYWNWIRKPPGKCLEYIGYISYTGSTYQNPSLKSRITMSRDTSKNQYYLKLSSVTAADTAVYYCARSRAWIRTYFDYWGQGTLVTVSS
VL: DIQMTQSPSSLSASVGDRVTITCSVSSSISSSNLHWYQQKPGKAPKPWIYGTSNLASGVPSRFSGSGSGTDYTLTISSLQPEDFATYYCQQWSSYPLTFGCGTKLEIK
B2: R1110: TIGIT_VH_IL15RA (sushi65 T2A)/TIGIT_VL_IL15/PD-L1-Fab (bispecific antibody)
chain 1: QVQLVQSGAEVKKPGSSVKVSCKASGYSFTSYWMNWVRQAPGQGLEWIGMIRPSDSETRLNQMFKDRVTITVDKSTSTAYMELSSLRSEDTAVYYCAGIHDYGHGAYWGQGTLVTVSSGGGGSGGGGSGGGGSGGGGSGIACPPPMSVEHADIWVKSYSLYSRERYICNSGFKRKAGTSSLTECVLNKATNVAHWTTPSLKCIREPKSSDKTHTCPPCPAPELLGGPSVFLFPPKPKDTLMISRTPEVTCVVVDVSHEDPEVKFNWYVDGVEVHNAKTKPREEQYNSTYRVVSVLTVLHQDWLNGKEYKCKVSNKALPAPIEKTISKAKGQPREPQVYTLPPSREEMTKNQVSLTCRVKGFYPSDIAVEWESNGQPENNYKTTPPVLKSDGSFFLASKLTVDKSRWQQGNVFSCSVMHEALHNHYTQKSLSLSPGK
chain 2: DIQMTQSPSSLSASVGDRVTITCRASENIYSNLAWYQQKPGKSPKLLVYAASHLPDGVPSRFSGSGSGTDYSLTISSLQPEDFATYYCQHFWGTPRTFGQGTKLEIKGGGGSGGGGSGGGGSGGGGSGNWVNVISDLKKIEDLIQSMHIDATLYTESDVHPSCKVTAMKCFLLELQVISLESGDASIHNTVQDLIILANNSLSSNGNVTESGCKECEELEEKNIKEFLQSFVHIVQMFINTS
heavy: QVQLQESGPGLVKPSETLSLTCAVYGDSITSGYWNWIRKPPGKGLEYIGYISYTGSTYQNPSLKSRITMSRDTSKNQYYLKLSSVTAADTAVYYCARSRAWIRTYFDYWGQGTLVTVSSASTKGPSVFPLAPSSKSTSGGTAALGCLVKDYFPEPVTVSWNSGALTSGVHTFPAVLQSSGLYSLSSVVTVPSSSLGTQTYICNVNHKPSNTKVDKRVEPKSCDKTHTCPPCPAPELLGGPSVFLFPPKPKDTLMISRTPEVTCVVVDVSHEDPEVKFNWYVDGVEVHNAKTKPREEQYNSTYRVVSVLTVLHQDWLNGKEYKCKVSNKALPAPIEKTISKAKGQPREPQVYTLPPSREEMTKNQVSLWCLVKGFYPSDIAVEWESNGQPENNYDTTPPVLDSDGSFFLYSDLTVDKSRWQQGNVFSCSVMHEALHNHYTQKSLSLSPGK
light: DIQMTQSPSSLSASVGDRVTITCSVSSSISSSNLHWYQQKPGKAPKPWIYGTSNLASGVPSRFSGSGSGTDYTLTISSLQPEDFATYYCQQWSSYPLTFGQGTKLEIKRTVAAPSVFIFPPSDEQLKSGTASVVCLLNNFYPREAKVQWKVDNALQSGNSQESVTEQDSKDSTYSLSSTLTLSKADYEKHKVYACEVTHQGLSSPVTKSFNRGEC
B3: R1072: TIGIT_VH_IL15RA/TIGIT_VL_IL15/PD-L1-Fab (bispecific antibody)
chain 1: QVQLVQSGAEVKKPGSSVKVSCKASGYSFTSYWMNWVRQAPGQGLEWIGMIRPSDSETRLNQMFKDRVTITVDKSTSTAYMELSSLRSEDTAVYYCAGIHDYGHGAYWGQGTLVTVSSGGGGSGGGGSGGGGSGGGGSGITCPPPMSVEHADIWVKSYSLYSRERYICNSGFKRKAGTSSLTECVLNKATNVAHWTTPSLKCIRDPALVHQRPAPPSTVTTAGVTPQPESLSPSGKEPAASSPSSNNTAATTAAIVPGSQLMPSKSPSTGTTEISSHESSHGTPSQTTAKNWELTASASHQPPGVYPQGHSDTTEPKSSDKTHTCPPCPAPELLGGPSVFLFPPKPKDTLMISRTPEVTCVVVDVSHEDPEVKFNWYVDGVEVHNAKTKPREEQYNSTYRVVSVLTVLHQDWLNGKEYKCKVSNKALPAPIEKTISKAKGQPREPQVYTLPPSREEMTKNQVSLTCRVKGFYPSDIAVEWESNGQPENNYKTTPPVLKSDGSFFLASKLTVDKSRWQQGNVFSCSVMHEALHNHYTQKSLSLSPGK
chain 2: B2 chain 2
heavy: B2 heavy
light: B2 light
B4: R1109: TIGIT_VH_IL15RA (sushi65)/TIGIT_VL_IL15/PD-L1-Fab (bispecific antibody)
chain 1: B2 chain 1 with A141T
chain 2: B2 chain 2
heavy: B2 heavy
light: B2 light
B5: R1111: TIGIT_VH_IL15RA (sushi65 T2A, T81A, T86A)/TIGIT_VL_IL15/PD-L1-Fab (bispecific antibody)
chain 1: QVQLVQSGAEVKKPGSSVKVSCKASGYSFTSYWMNWVRQAPGQGLEWIGMIRPSDSETRLNQMFKDRVTITVDKSTSTAYMELSSLRSEDTAVYYCAGIHDYGHGAYWGQGTLVTVSSGGGGSGGGGSGGGGSGGGGSGIACPPPMSVEHADIWVKSYSLYSRERYICNSGFKRKAGTSSLTECVLNKATNVAHWTTPSLKCIRDPALVHQRPAPPSTVATAGVAPQPESLSPSGKEPAASSPSSNNTAATTAEPKSSDKTHTCPPCPAPELLGGPSVFLFPPKPKDTLMISRTPEVTCVVVDVSHEDPEVKFNWYVDGVEVHNAKTKPREEQYNSTYRVVSVLTVLHQDWLNGKEYKCKVSNKALPAPIEKTISKAKGQPREPQVYTLPPSREEMTKNQVSLTCRVKGFYPSDIAVEWESNGQPENNYKTTPPVLKSDGSFFLASKLTVDKSRWQQGNVFSCSVMHEALHNHYTQKSLSLSPGK
chain 2: B2 chain 2
heavy: B2 heavy
light: B2 light
B6: R0952: TIGIT_VH_IL15/TIGIT_VL_IL15RA/PD-L1-Fab (bispecific antibody)
chain 1: not shown
chain 2: DIVMTQTPASVEVAVGGTVTIKCQASQSISSYLNWYQQKPGQPPKLLIYDALKLASGVPSRFSGSGSGTEYTLTISGVESADAATYYCQQEHSVGNVDNVFGGGTEVVVKGGGGSGGGGSGGGGSGGGGSGITCPPPMSVEHADIWVKSYSLYSRERYICNSGFKRKAGTSSLTECVLNKATNVAHWTTPSLKCIRDPALVHQRPAPPSTVTTAGVTPQPESLSPSGKEPAASSPSSNNTAATTAAIVPGSQLMPSKSPSTGTTEISSHESSHGTPSQTTAKNWELTASASHQPPGVYPQGHSDTT
heavy: EVQLLESGGGLVQPGGSLRLSCAASGFTFSSYIMMWVRQAPGKGLEWVSSIYPSGGITFYADTVKGRFTISRDNSKNTLYLQMNSLRAEDTAVYYCARIKLGTVTTVDYWGQGTLVTVSSAKTTAPSVYPLAPVCGDTTGSSVTLGCLVKGYFPEPVTLTWNSGSLSSGVHTFPAVLQSDLYTLSSSVTVTSSTWPSQSITCNVAHPASSTKVDKKIEPRGPTIKPCPPCKCPAPNLLGGPSVFIFPPKIKDVLMISLSPIVTCVVVDVSEDDPDVQISWFVNNVEVHTAQTQTHREDYNSTLRVVSALPIQHQDWMSGKEFKCKVNNKDLPAPIERTISKPKGSVRAPQVYVLPPPEEEMTKKQVTLTCRVTDFMPEDIYVEWTNNGKTELNYKNTEPVLKSDGSYFMASKLRVEKKNWVERNSYSCSVVHEGLHNHHTTKSFSRTPGK
light: QSALTQPASVSGSPGQSITISCTGTSSDVGGYNYVSWYQQHPGKAPKLMIYDVSNRPSGVSNRFSGSKSGNTASLTISGLQAEDEADYYCSSYTSSSTRVFGTGTKVTVLRTDAAPTVSIFPPSSEQLTSGGASVVCFLNNFYPKDINVKWKIDGSERQNGVLNSWTDQDSKDSTYSMSSTLTLTKDEYERHNSYTCEATHKTSTSPIVKSFNRNEC
B7: R0951: TIGIT_VH_IL15RA/TIGIT_VL_IL15/PD-L1-Fab (bispecific antibody)
chain 1: QVQLESEGGLFKPTDTLTLTCTVSGSSLSSSYMSWVRQAPGKGLEWIGIIGSNGNTYYANWAKGRFTISKTSTTVELKITSPTTEDTATYFCARGGYRTSGMDPWGPGTLVTVSSGGGGSGGGGSGGGGSGGGGSGITCPPPMSVEHADIWVKSYSLYSRERYICNSGFKRKAGTSSLTECVLNKATNVAHWTTPSLKCIRDPALVHQRPAPPSTVTTAGVTPQPESLSPSGKEPAASSPSSNNTAATTAAIVPGSQLMPSKSPSTGTTEISSHESSHGTPSQTTAKNWELTASASHQPPGVYPQGHSDTTEPRGPTIKPCPPCKCPAPNLLGGPSVFIFPPKIKDVLMISLSPIVTCVVVDVSEDDPDVQISWFVNNVEVHTAQTQTHREDYNSTLRVVSALPIQHQDWMSGKEFKCKVNNKDLPAPIERTISKPKGSVRAPQVYVLPPPEEEMTKKQVTLWCMVTDFMPEDIYVEWTNNGKTELNYDNTEPVLDSDGSYFMYSDLRVEKKNWVERNSYSCSVVHEGLHNHHTTKSFSRTPGK
chain 2: not shown
heavy: B6 heavy
light: B6 light

Columns and labels:
[1] = target: T1, PD-L1 (on CHO-PD-L1 cells) (UniProt Q9NZQ7 19-290); test: FACS binding; Fig. 24
T1 sequence (Q9NZQ7 19-290): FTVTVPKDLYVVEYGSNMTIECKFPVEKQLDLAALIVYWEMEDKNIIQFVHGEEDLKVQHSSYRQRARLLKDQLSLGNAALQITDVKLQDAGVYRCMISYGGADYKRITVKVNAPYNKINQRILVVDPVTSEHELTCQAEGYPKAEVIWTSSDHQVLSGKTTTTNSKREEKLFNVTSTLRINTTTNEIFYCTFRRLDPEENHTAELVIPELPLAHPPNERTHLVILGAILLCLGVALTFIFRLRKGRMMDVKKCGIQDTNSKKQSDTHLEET

[2] = target: T1, PD-L1 (on CHO-PD-L1 cells); test: FACS binding; Fig. 25
[3] = target: T1, PD-L1 (on CHO-PD-L1 cells); test: FACS binding; Fig. 22
[4] = target: T1, PD-L1 (on CHO-PD-L1 cells); test: FACS binding; Fig. 21

Binder | EC50 [1] [nM] | EC50 [2] [nM] | EC50 [3] [nM] | EC50 [4] [nM]
B1 | 2.01 | 2.91 |  | 
B2 |  | 1.53 |  | 
B3 | 2 | 2.08 | 3.73 | 
B4 |  | 1.56 |  | 
B5 |  | 2.39 |  | 
B6 |  |  |  | 0.43
B7 |  |  |  | 0.46
